In the supplement of paper PMC7877785:
± gives the uncertainty stated by the source.

Assay: self-splicing fitness, log relative to wild type (ln ratio); higher = more splicing; Tetrahymena group I intron in knt gene, E. coli kanamycin selection, DiMSum; sequences stand for … in CUCUCU…GGAGGGAAAAGUUAUCAGGCAUGCACCUGGUAGCUAGUCUUUAAACCAAUAGAUUGCAUCGGUUUAAAAGGCAAGACCGUCAAAUUGCGGGAAAGGGGUCAACAGCCGUUCAGUACCAAGUCUCAGGGGAAACUUUGAGAUGGCCUUGCAAAGGGUAUGGUAAUAAGCUGACGGACAUGGUCCUAACCACGCAGCCAAGUCCUAAGUCAACAGAUCUUCUGUUGAUAUGGAUGCAGUUCACAGACUAAAUGUCGGUCGGGGAAGAUGUAUUCUUCUCAUAAGAUAUAGUCGGACCUCUCCUUAAUGGGAGCUAGCGGAUGAAGUGAUGCAACACUGGAGCCGCUGGGAACUAAUUUGUAUGCGAAAGUAUAUUGAUUAGUUUUGGAGUACUCGUGGUCG
Outline: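 Library with all eight P1ex-region intron nucleotides randomised, intron inside the knt kanamycin-resistance gene on pET-22b(+), in E. coli BL21(DE3). Cells grew overnight at 37°C or 30°C on LB agar with or without 25 μg/mL kanamycin (plus 100 μg/mL carbenicillin, 50 μM IPTG, 0.2% rhamnose), in six replicate transformations. Pooled colonies were amplicon-sequenced on Illumina HiSeq 2500. DiMSum fitness is the error-weighted combination of wild-type-normalised replicate fold changes, kanamycin versus none.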

Sequence | self-splicing fitness (ln) (37 °C) | self-splicing fitness (ln) (30 °C)
UGGCAGCAAUAUUACGAUUC | -1.46 ± 0.32 | 
AAAGAGCAAUAUUACGUGCU | -2.82 ± 0.25 | -3.28 ± 0.22
CGCCAGCAAUAUUACGCGAC | -2.15 ± 0.17 | -3.18 ± 0.21
GCCGAGCAAUAUUACGAAAU | -1.62 ± 0.41 | -3.1 ± 0.39
AUGGAGCAAUAUUACGUUGA | -2.38 ± 0.2 | 
GCCGAGCAAUAUUACGCCCU | -0.0518 ± 0.2 | -2.8 ± 0.25
AGGUAGCAAUAUUACGUCAG | -1.42 ± 0.035 | -2.334 ± 0.019
GGCUAGCAAUAUUACGUCAC | -1.01 ± 0.17 | -2.28 ± 0.16
UCGUAGCAAUAUUACGACAU | -2.69 ± 0.043 | -3.861 ± 0.035
GGAUAGCAAUAUUACGCUCG | -0.208 ± 0.35 | -0.451 ± 0.24
GGAUAGCAAUAUUACGCGUG | -0.118 ± 0.08 | -1.49 ± 0.087
AUGGAGCAAUAUUACGUUGU | -2.48 ± 0.23 | -2.69 ± 0.17
UACGAGCAAUAUUACGCAAA | -1.67 ± 0.47 | -2.36 ± 0.28
GACUAGCAAUAUUACGAAGG | -1.87 ± 0.18 | -2.64 ± 0.17
GGUCAGCAAUAUUACGUUAC | -0.483 ± 0.08 | -1.25 ± 0.061
UGAGAGCAAUAUUACGCUAC |  | -2.4 ± 0.49
CGCCAGCAAUAUUACGAUGA | -1.48 ± 0.13 | -2.2 ± 0.12
GGGGAGCAAUAUUACGUGAU | -1.8 ± 0.26 | -2.84 ± 0.25
UGGAAGCAAUAUUACGCCGA | -0.201 ± 0.27 | -1.53 ± 0.26
AGCUAGCAAUAUUACGCCUA | -0.324 ± 0.13 | -0.93 ± 0.14
AAUCAGCAAUAUUACGGGGG | -1.66 ± 0.13 | -1.11 ± 0.1

Sequence | self-splicing fitness (ln) (37 °C) | self-splicing fitness (ln) (30 °C)
GCCCAGCAAUAUUACGGUAU | -0.0153 ± 0.068 | -0.47 ± 0.055
UUGUAGCAAUAUUACGCACG | -0.742 ± 0.13 | -1.14 ± 0.11
CUACAGCAAUAUUACGUGAC | -0.853 ± 0.14 | -1.02 ± 0.09
GCCCAGCAAUAUUACGCACA | -0.518 ± 0.094 | -0.537 ± 0.092
CGACAGCAAUAUUACGCAAU | -2.81 ± 0.22 | -4.5 ± 0.33
CGCGAGCAAUAUUACGGCGA | -1.19 ± 0.21 | -2.29 ± 0.24
CAAUAGCAAUAUUACGCCUU | -0.997 ± 0.24 | -2.1 ± 0.23
UCACAGCAAUAUUACGCUGG | -2.94 ± 0.22 | -3.9 ± 0.26
GCUGAGCAAUAUUACGACUC | -0.469 ± 0.21 | -0.148 ± 0.2
GCCAAGCAAUAUUACGCUCG | -1.84 ± 0.15 | -3.5 ± 0.2
CGAUAGCAAUAUUACGUCGA | -1.15 ± 0.12 | -3.77 ± 0.25
UCCAAGCAAUAUUACGUUCG | -2.2 ± 0.21 | -3.57 ± 0.27
CUGGAGCAAUAUUACGCCAU | -2.32 ± 0.34 | 
AGACAGCAAUAUUACGCUCG | 0.136 ± 0.089 | -0.153 ± 0.076
UGAGAGCAAUAUUACGUCGG | -1.77 ± 0.31 | -2.21 ± 0.2
UUCAAGCAAUAUUACGGCGG | -0.416 ± 0.1 | -0.903 ± 0.076
UAUCAGCAAUAUUACGACCA | 0.439 ± 0.16 | -0.0276 ± 0.12
GAGGAGCAAUAUUACGUGGA | -2.98 ± 0.29 | -3.86 ± 0.32
UCGAAGCAAUAUUACGACUG | -0.774 ± 0.13 | -1.11 ± 0.095
UAACAGCAAUAUUACGAGAC | -2.78 ± 0.29 | -4.18 ± 0.26
UUCGAGCAAUAUUACGAUCU | -1.83 ± 0.23 | -2.66 ± 0.19

Sequence | self-splicing fitness (ln) (37 °C) | self-splicing fitness (ln) (30 °C)
AAUUAGCAAUAUUACGCGAG | -0.918 ± 0.12 | -1.84 ± 0.12
CACUAGCAAUAUUACGUCGG | 0.0907 ± 0.1 | -1.25 ± 0.082
CCGUAGCAAUAUUACGUUGA | -3.13 ± 0.29 | -2.67 ± 0.33
AAAAAGCAAUAUUACGUAGA | -1.33 ± 0.065 | -2.21 ± 0.062
GAUGAGCAAUAUUACGUUAG | -1.81 ± 0.23 | -3.42 ± 0.24
CGCAAGCAAUAUUACGCUCA | -0.6 ± 0.088 | -0.828 ± 0.076
UUAGAGCAAUAUUACGGGGG | -1.79 ± 0.36 | -3.04 ± 0.31
CGCCAGCAAUAUUACGCAAG | -0.526 ± 0.091 | -1.03 ± 0.077
GCCGAGCAAUAUUACGGGUA | -0.505 ± 0.068 | -1.36 ± 0.068
ACUGAGCAAUAUUACGUCUU | -1.11 ± 0.12 | -2.57 ± 0.13
GAAUAGCAAUAUUACGGAUC | -0.207 ± 0.073 | -0.118 ± 0.058
CAUCAGCAAUAUUACGCGCU | -1.87 ± 0.29 | 
UACCAGCAAUAUUACGAACC | -1.05 ± 0.23 | -3.08 ± 0.2
CAACAGCAAUAUUACGGUUA | 0.275 ± 0.056 | -0.258 ± 0.048
CCUGAGCAAUAUUACGCGGC | -2.55 ± 0.22 | -3.57 ± 0.2
CGCGAGCAAUAUUACGACCA | -2.4 ± 0.29 | -1.71 ± 0.26
GUGCAGCAAUAUUACGUUGC | -2.93 ± 0.31 | -3.82 ± 0.31
CCGCAGCAAUAUUACGGCAC | -2.91 ± 0.25 | -2.89 ± 0.21
GUUGAGCAAUAUUACGGCUU | -1.25 ± 0.37 | -2.84 ± 0.28
